Legend:
Settings in all cases: supernatant
[1] = target: T1, mCD47 (Mus musculus, UniProt Q61735); test: SIRPα/CD47 ELISA binding assay of supernatants
T1 sequence (Q61735 19-303): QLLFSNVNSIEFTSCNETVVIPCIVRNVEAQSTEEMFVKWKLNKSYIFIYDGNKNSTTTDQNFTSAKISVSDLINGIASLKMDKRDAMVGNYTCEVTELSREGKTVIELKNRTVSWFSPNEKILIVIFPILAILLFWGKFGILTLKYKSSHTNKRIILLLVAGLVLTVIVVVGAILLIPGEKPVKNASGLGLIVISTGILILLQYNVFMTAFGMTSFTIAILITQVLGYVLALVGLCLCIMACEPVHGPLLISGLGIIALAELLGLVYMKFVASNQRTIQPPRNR

[2] = system: anti-mSIRPα antibody; test: SIRPα/CD47 ELISA binding assay, detection by antibody
[3] = SIRPα/CD47 ELISA binding assay, control coatings

B1: Secreted WT mSIRPα: wild type murine SIRPα secreted by engineered Nissle (SYN2996), in supernatant (protein)
chain: KELKVTQPEKSVSVAAGDSTVLNCTLTSLLPVGPIRWYRGVGPSRLLIYSFAGEYVPRIRNVSDTTKRNNMDFSIRISNVTPADAGIYYCVKFQKGSSEPDTEIQSGGGTEVYVLAKPSPPEVSGPADRGIPDQKVNFTCKSHGFSPRNITLKWFKDGQELHPLETTVNPSGKNVSYNISSTVRVVLNSMDVNSKVICEVAHITLDRSPLRGIANLSNFIRVSPTVKVTQQSPTSMNQVNLTCRAERFYPEDLQLIWLENGNVSRNDTPKNLTKNTDGTYNYTSLFLVNSSAHREDVVFTCQVKHDQQPAITRNHTVLGFAHSSDQGSMQTFPDNNATHNWN
modifications: left off: small tags and cut ends
With B1 the “ELISA signal, coating mCD47” value [1] was 1.069, the “ELISA signal, coating Anti-mSIRPα” value [2] was 0.829 and the “ELISA signal, coating IgG” value [3] was 0.056. For the same molecule, the “ELISA signal, coating PBS” value [3] was 0.059.

Source: patent US11471494B2, “Microorganisms programmed to produce immune modulators and anti-cancer therapeutics in tumor cells” (Synlogic Operating Company, Inc., priority 2017, dated 2022)
